Laboratory results taken from publication PMC8049995 (The Journal of Biological Chemistry, 2021).
Residue numbers refer to the chain shown, from its start. Numbers in names are those of the source.

B1: Human peroxiredoxin 2 C172W mutant, reduced (enzyme, UniProt P32119 2-198, looked up)
chain: ASGNARIGKPAPDFKATAVVDGAFKEVKLSDYKGKYVVLFFYPLDFTFVCPTEIIAFSNRAEDFRKLGCEVLGVSVDSQFTHLAWINTPRKEGGLGPLNIPLLADVTRRLSEDYGVLKTDEGIAYRGLFIIDGKGVLRQITVNDLPVGRSVDEALRLVQAFQYTDEHGEVWPAGWKPGSDTIKPNVDDSKEYFSKHN
B2: Human peroxiredoxin 2 C172D mutant, reduced (enzyme, UniProt P32119 2-198, looked up)
chain: B1 chain with W171D
B3: Human peroxiredoxin 2 C172S mutant, reduced (enzyme, UniProt P32119 2-198, looked up)
chain: B1 chain with W171S
B4: Human peroxiredoxin 2, recombinant wild type, hyperoxidized (CP sulfinate) form (enzyme, UniProt P32119 2-198, looked up)
chain: B1 chain with W171C
modifications: Cys51 (CP) sulfinate

How the values were obtained:
SEC-MALS = biological target: the molecule itself; experiment: SEC-MALS
SEC = biological target: the molecule itself; experiment: SEC
AUC = biological target: the molecule itself; experiment: AUC
crystal structure = biological target: the molecule itself; experiment: crystal structure

| Protein | stoichiometry N (SEC-MALS) | percent decamer (SEC) [%] | stoichiometry N (AUC) | stoichiometry N (crystal structure) |
| --- | --- | --- | --- | --- |
| B1 | 10 | 62 | – | – |
| B2 | – | 45 | 10 | – |
| B3 | – | 60 | 10 | – |
| B4 | – | – | – | 10 |
